{
  "source": "patent US20210138090A1",
  "about": "“uPAR targeting peptide for use in peroperative optical imaging of invasive cancer” (FLUOGUIDE A/S, priority 2014, published 2021)",
  "key": {"uPAR wt": {"biological_target": "uPAR wt (Homo sapiens, UniProt Q03405)", "sequence (Q03405 23-305 limits assumed)": "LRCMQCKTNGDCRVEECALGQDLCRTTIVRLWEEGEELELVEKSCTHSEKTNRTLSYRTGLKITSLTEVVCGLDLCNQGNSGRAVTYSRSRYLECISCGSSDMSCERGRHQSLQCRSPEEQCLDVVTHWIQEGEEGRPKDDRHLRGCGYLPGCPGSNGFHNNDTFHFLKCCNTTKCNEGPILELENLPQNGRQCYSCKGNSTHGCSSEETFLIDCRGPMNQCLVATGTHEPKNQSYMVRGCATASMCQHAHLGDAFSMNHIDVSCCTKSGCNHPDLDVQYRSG", "experiment": "SPR inhibition of uPAR binding to immobilized uPA", "experimental": "(§1) Covalent immobilization of purified human prouPA^S356A—was accomplished by injecting 12.5 μg/ml protein dissolved in 10 mM sodium acetate (pH 5.0) over a CM5 chip that had been pre-activated with NHS/EDC (N-ethyl-N′-[3-[…])propyl]-carbodiimide), aiming at a surface density of >5000 resonance units (RU) corresponding to 100 fmols/mm^2. After coupling the sensorchip was deactivated with 1 M ethanolamine. Binding of purified human uPAR as analyte was measured from 4 nM to 0.25 nM at 20° C. using 10 mM HEPES, 150 mM NaCl, 3 mM EDTA (pH 7.4) containing 0.05% (v/v) surfactant P20 as running buffer at a flow rate of 50 μl/min. In between cycles the sensorchip was regenerated by two consecutive 10-μl injections of 0.1 M acetic acid/HCl (pH 2.5) in 0.5 M NaCl. The inhibition of 3-fold dilutions of the compounds in question was measured for 4 nM uPAR with identical running conditions. All experiments were performed on a BiacoreT200 instrument.\n(§2) For each inhibition peptide inhibition profile of uPAR binding to immobilized uPA there has been run a preceding standard curve and all calculations are based on the that standard curve.\n(§3) Surface plasmon resonance (SPR) was applied to determine the […]-value of IRDye800-AE344 on the uPAR⋅uPA interaction in solution using a Biacore 3000 instrument essentially as described. In brief; pro-uPA^S356A, which is the natural ligand for uPAR. […] The analysis was carried out by measuring vobs of a fixed uPAR concentration (2 nM) incubated with a 3-fold dilution series of IRDye800-AE344 (ranging from 0.076 nM to 1.5 μM) for 300 sec at 20° C. with a flow rate of 50 μL/min. A standard curve was measured in parallel (2-fold dilution of uPAR covering 0.06 nM to 2 nM) including one repeated concentration point at the end to validate the biological integrity of the sensor chip. Running buffer contained 10 mM HEPES, 150 mM NaCl, 3 mM EDTA and 0.05% (v/v) surfactant P20, pH 7.4. The sensor chip was regenerated with two injections of 0.1 M acetic acid, 0.5 M NaCl. The parent nonamer peptide antagonist AE105 (Asp-Cha-Phe-D-Ser-D-Arg-Tyr-Leu-Trp-Ser-OH) was analyzed in parallel as positive control and the closed uPAR^H47C-N259C was used as negative control as its uPA binding cavity cannot accommodate AE105."}, "uPAR H47C-N259C": {"biological_target": "uPAR H47C-N259C (Homo sapiens, UniProt Q03405, H69C/N281C)", "sequence (Q03405 23-305 H69C/N281C limits assumed)": "as the sequence (Q03405 23-305 limits assumed) above, with H47C, N259C counted along it", "experiment": "SPR inhibition of uPAR binding to immobilized uPA, constrained uPAR variant (negative control)", "experimental": "as §1, §2\nas §3, with “Running buffer contained 10 mM HEPES, 150 mM NaCl, 3 mM EDTA and 0.05% (v/v) surfactant P20, pH 7.4. The sensor chip was regenerated with two injections of 0.1 M acetic acid, 0.5 M NaCl.” left out"}, "[1]": {"experiment": "vis/NIR spectral properties", "type": "physicochemical", "experimental": "Fluorophore excitation and emission profiles were obtained with PTI QuantaMaster 400 (Horiba Ltd., Japan). Excitation profile was measured at λemission=850 nm and the emission profile were measured at λexcitation=740 nm with xenon arc lamps as excitation source. Absorption was measured on a Cary 300 UV-Vis (Agilent, Santa Clara, Calif., USA)."}, "[2]": {"tested_on": "orthotopic GBM (U-87 MG-luc2 cells)", "experiment": "in vivo binding specificity in orthotopic GBM (blocking with AE120, scrambled probe)", "parameters": "species or system mice", "conditions": "3 nmol, 1 h", "experimental": "The target specificity to uPAR was evaluated by two different methods: competitive blocking with the uPAR targeting peptide AE120 ((DChaFsrYLWSG)2-βAK) and IRDye800 conjugated to a scrambled peptide, AE354 (IRDye800CW-Glu-Glu-NH—CH2—CH2—O—CH2—CH2—O—CH2—CO—NH—CH2—CH2—O—CH2—CH2—O—CH2—CO-Asp-Cha-Glu-(D)Ser-(D)Arg-Tyr-Leu-Glu-Ser-OH) with similar peptide length as the active peptide. The competitive blocking dose of 1.4-2.8 mg AE120 was injected intraperitoneally 15-30 min prior to intravenous injection of 3 nmol IRDye800CW-AE344 and imaged at 1 h (n=5). The scrambled peptide was administered at 3 nmol and the animals were imaged after 1 h (n=4).\nImages were analyzed and processed in ImageJ 1.52a, NIH, USA. Signal measurements were performed on the raw images generated by the Fluoptics system. Tumor signal was measured as a mean fluorescence intensity of the whole tumor and background signal was measured as the mean of a representative area with no tumor on the contralateral hemisphere. Presented pictures are contrast enhanced in ImageJ with the Contrast Enhancement (Saturated pixels: 0.3%)."}, "[3]": {"experiment": "biodistribution by organ fluorescence imaging", "type": "in vivo, mice", "conditions": "3 nmol, 1 h", "from_the_text": "[…] Due to renal excretion, the fluorescence signal in the kidneys were out of scale compared to all the other organs. […] The skin was imaged partially (1.25 g) and the biodistribution was extrapolated with respect to the full weight of the skin (4.9 g)."}, "[4]": {"experiment": "acute toxicity: liver and kidney histology", "type": "in vivo, mice", "conditions": "3 nmol, 1 h post injection", "from_the_text": "Liver and kidneys: Tissue was formalin fixed and paraffin embedded. Sections of 2-4 um thick were cut and a routine staining panel applied including: H&E, modified sirius, PAS and Masson trichome for both and additional PAS with silver for kidneys and PAS with diastase, iron, reticulin artisan and oxidised orcein for the livers. Livers were immunohistochemically stained, immunohistochemical evaluation on 3 μm thick sections was done using the CK7 antibody from Dako/Agilent, GA619 (clone OV-TL12/30) following the manufacturer's instructions. The staining took place on the Omnis from Agilent utilizing the EnVision Flex+ detection kit (GV800). The primary antibody was diluted using Antibody Diluent (Dako DM830) and were incubated for 20 minutes. The sections were counterstained with hematoxylin."}},
  "note": "Square brackets hold non-standard residues; d marks the D form. Peptide text beside a SMILES is read from it. * marks the point of attachment. IRDye800CW = CC1(C)C(/C=C/C2=C(Oc3ccc(S(=O)(=O)O)cc3)C(=C/C=C3/N(CCCCS(=O)(=O)O)c4ccc(S(=O)(=O)O)cc4C3(C)C)/CCC2)=[N+](CCCCCC(=O)*)c2ccc(S(=O)(=O)[O-])cc21; Cha = N[C@@H](CC1CCCCC1)C(=O)O; AEEA = NCCOCCOCC(=O)O",
  "data": [
    {"compound": "CC(C)C[C@H](NC(=O)[C@H](Cc1ccc(O)cc1)NC(=O)[C@@H](CCCNC(=N)N)NC(=O)[C@@H](CO)NC(=O)[C@H](Cc1ccccc1)NC(=O)[C@H](CC1CCCCC1)NC(=O)[C@H](CC(=O)O)NC(=O)COCCOCCNC(=O)COCCOCCNC(=O)[C@H](CCC(=O)O)NC(=O)[C@H](CCC(=O)O)NC(=O)CCCCC[N+]1=C(/C=C/C2=C(Oc3ccc(S(=O)(=O)O)cc3)C(=C/C=C3/N(CCCCS(=O)(=O)O)c4ccc(S(=O)(=O)O)cc4C3(C)C)/CCC2)C(C)(C)c2cc(S(=O)(=O)[O-])ccc21)C(=O)N[C@@H](Cc1c[nH]c2ccccc12)C(=O)N[C@@H](CO)C(=O)O", "note": "[IRDye800CW-AE344, IRDye800-Glu-Glu-O2Oc-O2Oc-Asp-Cha-Phe-D-ser-D-arg-Tyr-Leu-Trp-Ser-OH] (IRDye800CW-EE[AEEA][AEEA]D[Cha]F[dS][dR]YLWS-OH)", "values": [
      {"measurement": "IC50", "setting": "uPAR wt", "result": "0.02 ± 0.0011", "unit": "µM"},
      {"measurement": "IC50", "setting": "uPAR H47C-N259C", "result": "5.8 ± 0.02", "unit": "µM"},
      {"measurement": "Stokes shift", "setting": "[1]", "result": 10, "unit": "nm"},
      {"measurement": "absorption peak λabs,max", "setting": "[1]", "result": 777, "unit": "nm"},
      {"measurement": "excitation peak λexcitation,max", "setting": "[1]", "result": 784, "unit": "nm"},
      {"measurement": "peak emission λemission,max", "setting": "[1]", "result": 794, "unit": "nm"},
      {"measurement": "TBR", "setting": "[2]; blocked with AE120", "result": 4.6},
      {"measurement": "normalized TBR (ref: active probe)", "setting": "[2]; competitively blocked with AE120", "result": 0.70},
      {"measurement": "TBR", "setting": "[2]; no blocking", "result": 6.6},
      {"measurement": "normalized TBR (ref: active probe)", "setting": "[2]; no blocking", "result": 1.00},
      {"measurement": "MFI brain", "setting": "[3]; 333 ms exposure", "result": 19, "unit": "a.u."},
      {"measurement": "MFI liver", "setting": "[3]; 333 ms exposure", "result": 88, "unit": "a.u."},
      {"measurement": "MFI lungs", "setting": "[3]; 333 ms exposure", "result": 101, "unit": "a.u."},
      {"measurement": "MFI skin", "setting": "[3]; 333 ms exposure", "result": 99, "unit": "a.u."},
      {"measurement": "MFI tumor", "setting": "[3]; 333 ms exposure", "result": 65, "unit": "a.u."},
      {"measurement": "normalized uptake brain", "setting": "[3]; normalized to skin=100", "result": 0.7},
      {"measurement": "normalized uptake colon", "setting": "[3]; normalized to skin=100", "result": 4.0},
      {"measurement": "normalized uptake heart", "setting": "[3]; normalized to skin=100", "result": 0.4},
      {"measurement": "normalized uptake kidneys", "setting": "[3]; normalized to skin=100", "result": 38.8},
      {"measurement": "normalized uptake liver", "setting": "[3]; normalized to skin=100", "result": 12.2},
      {"measurement": "normalized uptake lungs", "setting": "[3]; normalized to skin=100", "result": 4.2},
      {"measurement": "normalized uptake pancreas", "setting": "[3]; normalized to skin=100", "result": 3.4},
      {"measurement": "normalized uptake small intestine", "setting": "[3]; normalized to skin=100", "result": 11.2},
      {"measurement": "normalized uptake spleen", "setting": "[3]; normalized to skin=100", "result": 0.4},
      {"measurement": "normalized uptake tumor", "setting": "[3]; normalized to skin=100", "result": 0.1},
      {"measurement": "normalized uptake ventricle", "setting": "[3]; normalized to skin=100", "result": 0.9},
      {"measurement": "normalized uptake skin", "setting": "[3]; skin = reference", "result": 100},
      {"measurement": "MFI kidneys", "setting": "[3]; extrapolated from 40 ms exposure", "result": "1,236 a.u."},
      {"measurement": "kidney histology (H&E stained)", "setting": "[4]", "result": "normal"},
      {"measurement": "liver histology (H&E stained)", "setting": "[4]", "result": "normal"}
    ]}
  ]
}
